Experimental findings from patent US20250283117, “RNA-GUIDED NUCLEASES AND ACTIVE FRAGMENTS AND VARIANTS THEREOF AND METHODS OF USE” (Life Edit Therapeutics, Inc., published 2025) are described below.

The subject of the first data set is T1, APG08290.1 (Bacillus sp.).
T1 sequence: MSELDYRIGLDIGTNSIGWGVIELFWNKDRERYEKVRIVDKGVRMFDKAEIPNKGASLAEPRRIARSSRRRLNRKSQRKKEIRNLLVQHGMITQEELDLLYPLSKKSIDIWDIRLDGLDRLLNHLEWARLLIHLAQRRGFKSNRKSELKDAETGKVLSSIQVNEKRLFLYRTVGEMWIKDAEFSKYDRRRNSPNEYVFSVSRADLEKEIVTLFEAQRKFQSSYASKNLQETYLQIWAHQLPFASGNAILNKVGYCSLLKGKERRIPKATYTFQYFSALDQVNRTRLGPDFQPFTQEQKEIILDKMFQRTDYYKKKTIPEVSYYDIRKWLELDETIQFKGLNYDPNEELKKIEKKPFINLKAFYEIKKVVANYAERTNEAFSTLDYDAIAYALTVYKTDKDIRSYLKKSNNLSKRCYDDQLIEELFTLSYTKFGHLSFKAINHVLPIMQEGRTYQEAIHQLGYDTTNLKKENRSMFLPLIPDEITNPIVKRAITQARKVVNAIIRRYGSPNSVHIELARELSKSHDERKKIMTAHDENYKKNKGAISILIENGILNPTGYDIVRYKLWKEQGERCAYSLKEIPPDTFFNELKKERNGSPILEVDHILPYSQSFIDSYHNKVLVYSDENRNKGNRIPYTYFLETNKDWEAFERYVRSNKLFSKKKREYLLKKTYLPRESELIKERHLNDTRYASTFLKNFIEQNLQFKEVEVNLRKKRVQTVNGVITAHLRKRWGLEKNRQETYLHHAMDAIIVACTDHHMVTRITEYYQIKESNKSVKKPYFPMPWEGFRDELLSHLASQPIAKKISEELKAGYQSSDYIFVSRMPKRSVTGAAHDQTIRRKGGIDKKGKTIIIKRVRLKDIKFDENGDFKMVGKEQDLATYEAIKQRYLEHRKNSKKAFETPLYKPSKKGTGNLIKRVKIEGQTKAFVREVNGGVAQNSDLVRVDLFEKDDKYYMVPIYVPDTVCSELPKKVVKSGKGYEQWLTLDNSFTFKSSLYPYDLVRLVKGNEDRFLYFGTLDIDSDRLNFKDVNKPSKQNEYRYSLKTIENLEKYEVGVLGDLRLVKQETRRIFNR
Put plainly: cleavage_in_vitro.
Conditions: not given
In turn, “GAGCGGACAGCAGCUUCCUAUAUCUCGUACNNNNNNNNNNNNNNNNNNNNNNNNNGUCAUAGUUCCAUGAAAGCCAAAAGUGGCUUUGAUGUUUCUAUGAUAAGGGUUUCGGCCCGUGGCGUCGGGGAUCGCCUGCCCAUUCCGAUGGGCUUCUCCCCAUUUAUU / GAGCGGACTGCAGCTTCCTATATCTCGTAC / GTACGAGATATAGGAAGCTGCAGTCCGCTC [Sequence 1 sgRNA for APG08290.1 ; target mismatch 22]” registered an activity of 100 % cleaved. As to “GAGCGGACAGCAGCUUCCUAUAUCUCGUACNNNNNNNNNNNNNNNNNNNNNNNNNGUCAUAGUUCCAUGAAAGCCAAAAGUGGCUUUGAUGUUUCUAUGAUAAGGGUUUCGGCCCGUGGCGUCGGGGAUCGCCUGCCCAUUCCGAUGGGCUUCUCCCCAUUUAUU / GAGCGGACAGCACCTTCCTATATCTCGTAC / GTACGAGATATAGGAAGGTGCTGTCCGCTC [Sequence 1 sgRNA for APG08290.1 ; target mismatch 18]”, the activity was determined as 100 % cleaved.

With “GAGCGGACAGCAGCUUCCUAUAUCUCGUACNNNNNNNNNNNNNNNNNNNNNNNNNGUCAUAGUUCCAUGAAAGCCAAAAGUGGCUUUGAUGUUUCUAUGAUAAGGGUUUCGGCCCGUGGCGUCGGGGAUCGCCUGCCCAUUCCGAUGGGCUUCUCCCCAUUUAUU / GAGCGGACAGCAGCTTCGTATATCTCGTAC / GTACGAGATATACGAAGCTGCTGTCCGCTC [Sequence 1 sgRNA for APG08290.1 ; target mismatch 13]”, the activity is 28 % cleaved. Same read-out and setting: the result for “GAGCGGACAGCAGCUUCCUAUAUCUCGUACNNNNNNNNNNNNNNNNNNNNNNNNNGUCAUAGUUCCAUGAAAGCCAAAAGUGGCUUUGAUGUUUCUAUGAUAAGGGUUUCGGCCCGUGGCGUCGGGGAUCGCCUGCCCAUUCCGAUGGGCUUCUCCCCAUUUAUU / GAGCGGACAGCAGCTTCCTAAATCTCGTAC / GTACGAGATTTAGGAAGCTGCTGTCCGCTC [Sequence 1 sgRNA for APG08290.1 ; target mismatch 10]” reads 75 % cleaved. On the same count and under the same terms, the figure for “GAGCGGACAGCAGCUUCCUAUAUCUCGUACNNNNNNNNNNNNNNNNNNNNNNNNNGUCAUAGUUCCAUGAAAGCCAAAAGUGGCUUUGAUGUUUCUAUGAUAAGGGUUUCGGCCCGUGGCGUCGGGGAUCGCCUGCCCAUUCCGAUGGGCUUCUCCCCAUUUAUU / GAGCGGACAGCAGCTTCCTATAACTCGTAC / GTACGAGTTATAGGAAGCTGCTGTCCGCTC [Sequence 1 sgRNA for APG08290.1 ; target mismatch 8]” is 0 % cleaved; for “GAGCGGACAGCAGCUUCCUAUAUCUCGUACNNNNNNNNNNNNNNNNNNNNNNNNNGUCAUAGUUCCAUGAAAGCCAAAAGUGGCUUUGAUGUUUCUAUGAUAAGGGUUUCGGCCCGUGGCGUCGGGGAUCGCCUGCCCAUUCCGAUGGGCUUCUCCCCAUUUAUU / GAGCGGACAGCAGCTTCCTATATCTCGAAC / GTTCGAGATATAGGAAGCTGCTGTCCGCTC [Sequence 1 sgRNA for APG08290.1 ; target mismatch 3]” it is 73 % cleaved; for “GAGCGGACAGCAGCUUCCUAUAUCUCGUACNNNNNNNNNNNNNNNNNNNNNNNNNGUCAUAGUUCCAUGAAAGCCAAAAGUGGCUUUGAUGUUUCUAUGAUAAGGGUUUCGGCCCGUGGCGUCGGGGAUCGCCUGCCCAUUCCGAUGGGCUUCUCCCCAUUUAUU / GAGCGGACAGCAGCTTCCTATATCTCGTAG / CTACGAGATATAGGAAGCTGCTGTCCGCTC [Sequence 1 sgRNA for APG08290.1 ; target mismatch 1]” it is 0 % cleaved. The same measure, in the same setting: the result for “GAGCGGACAGCAGCUUCCUAUAUCUCGUACNNNNNNNNNNNNNNNNNNNNNNNNNGUCAUAGUUCCAUGAAAGCCAAAAGUGGCUUUGAUGUUUCUAUGAUAAGGGUUUCGGCCCGUGGCGUCGGGGAUCGCCUGCCCAUUCCGAUGGGCUUCUCCCCAUUUAUU / CAGCGGACAGCAGCTTCCTATATCTCGTAC / GTACGAGATATAGGAAGCTGCTGTCCGCTG [Sequence 1 sgRNA for APG08290.1 ; target mismatch 30]” reads 100 % cleaved. Consider “GAGCGGACAGCAGCUUCCUAUAUCUCGUACNNNNNNNNNNNNNNNNNNNNNNNNNGUCAUAGUUCCAUGAAAGCCAAAAGUGGCUUUGAUGUUUCUAUGAUAAGGGUUUCGGCCCGUGGCGUCGGGGAUCGCCUGCCCAUUCCGAUGGGCUUCUCCCCAUUUAUU / GAGCGGACAGCAGCTTCCTATATCTGGTAC / GTACCAGATATAGGAAGCTGCTGTCCGCTC [Sequence 1 sgRNA for APG08290.1 ; target mismatch 5]”, for which the activity was determined as 0 % cleaved. Sequence “GAGCGGACAGCAGCUUCCUAUAUCUCGUACNNNNNNNNNNNNNNNNNNNNNNNNNGUCAUAGUUCCAUGAAAGCCAAAAGUGGCUUUGAUGUUUCUAUGAUAAGGGUUUCGGCCCGUGGCGUCGGGGAUCGCCUGCCCAUUCCGAUGGGCUUCUCCCCAUUUAUU / GAGCGGACAGCAGCTTCCTATATCTCGTTC / GAACGAGATATAGGAAGCTGCTGTCCGCTC [Sequence 1 sgRNA for APG08290.1 ; target mismatch 2]” had an activity of 0 % cleaved.

The same data set, now with this note: PAM NNRNCC; NTS cut 4, TS cut 3, 1 nt 5' overhang (Table 3).
The sequence “GAGCGGACAGCAGCUUCCUAUAUCUCGUACNNNNNNNNNNNNNNNNNNNNNNNNNGUCAUAGUUCCAUGAAAGCCAAAAGUGGCUUUGAUGUUUCUAUGAUAAGGGUUUCGGCCCGUGGCGUCGGGGAUCGCCUGCCCAUUCCGAUGGGCUUCUCCCCAUUUAUU / GAGCGGACAGCAGCTTCCTATATCTCGTAC / GTACGAGATATAGGAAGCTGCTGTCCGCTC [Sequence 1 sgRNA for APG08290.1 ; Sequence 1 target]” registered an activity of 95 % cleaved.

Still in this data set, the particulars now being: incompatible PAM.
As to “GAGCGGACAGCAGCUUCCUAUAUCUCGUACNNNNNNNNNNNNNNNNNNNNNNNNNGUCAUAGUUCCAUGAAAGCCAAAAGUGGCUUUGAUGUUUCUAUGAUAAGGGUUUCGGCCCGUGGCGUCGGGGAUCGCCUGCCCAUUCCGAUGGGCUUCUCCCCAUUUAUU / GAGCGGACAGCAGCTTCCTATATCTCGTAC / GTACGAGATATAGGAAGCTGCTGTCCGCTC”, the activity came out at 0 % cleaved.

A further data set has as its system T2, APG05459.1 (Enterococcus sp.).
T2 sequence: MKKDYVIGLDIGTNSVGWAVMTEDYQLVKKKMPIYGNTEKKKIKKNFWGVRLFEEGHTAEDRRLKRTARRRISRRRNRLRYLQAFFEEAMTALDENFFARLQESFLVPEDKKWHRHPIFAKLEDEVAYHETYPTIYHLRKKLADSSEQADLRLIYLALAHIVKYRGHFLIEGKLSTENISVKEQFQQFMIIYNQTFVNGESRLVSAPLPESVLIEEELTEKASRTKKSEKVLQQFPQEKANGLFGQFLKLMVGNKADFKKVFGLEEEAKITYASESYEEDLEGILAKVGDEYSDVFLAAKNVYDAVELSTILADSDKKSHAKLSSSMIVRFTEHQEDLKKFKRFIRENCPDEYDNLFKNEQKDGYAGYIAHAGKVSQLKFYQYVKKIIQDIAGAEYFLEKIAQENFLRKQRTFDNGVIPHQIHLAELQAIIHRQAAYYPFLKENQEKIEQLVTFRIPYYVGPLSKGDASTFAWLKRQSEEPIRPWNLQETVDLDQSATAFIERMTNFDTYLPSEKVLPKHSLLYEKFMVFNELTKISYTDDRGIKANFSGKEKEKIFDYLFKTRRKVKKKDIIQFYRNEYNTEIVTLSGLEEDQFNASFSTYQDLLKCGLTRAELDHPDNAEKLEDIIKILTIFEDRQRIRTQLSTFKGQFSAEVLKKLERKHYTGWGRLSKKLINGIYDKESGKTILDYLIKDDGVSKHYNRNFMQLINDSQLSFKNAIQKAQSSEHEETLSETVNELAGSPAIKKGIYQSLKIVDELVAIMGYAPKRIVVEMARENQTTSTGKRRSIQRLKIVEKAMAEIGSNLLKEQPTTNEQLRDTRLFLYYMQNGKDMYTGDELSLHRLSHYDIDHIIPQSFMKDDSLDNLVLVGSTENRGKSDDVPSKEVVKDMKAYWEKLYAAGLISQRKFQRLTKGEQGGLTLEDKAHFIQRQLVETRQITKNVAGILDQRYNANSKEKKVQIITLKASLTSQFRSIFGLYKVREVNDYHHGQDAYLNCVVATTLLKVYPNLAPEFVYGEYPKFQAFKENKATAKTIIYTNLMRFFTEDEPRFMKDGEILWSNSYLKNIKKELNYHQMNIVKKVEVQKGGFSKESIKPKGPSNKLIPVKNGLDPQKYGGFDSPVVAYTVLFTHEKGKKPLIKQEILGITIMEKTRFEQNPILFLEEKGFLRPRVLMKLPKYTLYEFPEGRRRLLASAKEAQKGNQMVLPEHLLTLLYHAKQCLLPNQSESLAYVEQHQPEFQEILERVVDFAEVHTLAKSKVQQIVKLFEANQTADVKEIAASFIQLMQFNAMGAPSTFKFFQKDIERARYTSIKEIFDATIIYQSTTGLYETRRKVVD
Put plainly: cleavage_in_vitro.
Conditions: not given
“GAGCGGACAGCAGCUUCCUAUAUCUCGUACNNNNNNNNNNNNNNNNNNNNNNNNNGUUUUAGAGUCAUGUUAAAGAACAUAGCAAGUUAAAAUAAGGUUUUAACCGUAAUCAACUGUAAAGUGGCGCUGUUUCGGCGCUUUUUUUGUUU / GAGCGGACAGCAGCTTCCTAAATCTCGTAC / GTACGAGATTTAGGAAGCTGCTGTCCGCTC [Sequence 1 sgRNA for APG05459.1 ; target mismatch 10]” registered an activity of 52 % cleaved.

“GAGCGGACAGCAGCUUCCUAUAUCUCGUACNNNNNNNNNNNNNNNNNNNNNNNNNGUUUUAGAGUCAUGUUAAAGAACAUAGCAAGUUAAAAUAAGGUUUUAACCGUAAUCAACUGUAAAGUGGCGCUGUUUCGGCGCUUUUUUUGUUU / GAGCGGACAGCAGCTTCGTATATCTCGTAC / GTACGAGATATACGAAGCTGCTGTCCGCTC [Sequence 1 sgRNA for APG05459.1 ; target mismatch 13]” gave an activity of 18 % cleaved.
